Reference: patent US10246503B2, “Method of improving the pharmacokinetic profile of a therapeutic polypeptide and the use thereof” (BEIJING ANXINHUAIDE BIOTECH. CO., LTD, priority 2012, dated 2019)
Changes are numbered by the printed parent chain. In names and notes the source's numbering stands. Each block holds one molecule with its values, some of them ahead of it.

Legend:
[1] = analytical gel filtration (Superdex200), apparent molecular weight; assay type: physicochemical
From the text: In the fusion protein of GLP-1(A8G/G22E)-Fn8-COL18NC1 described in example 4, the flexible unstructured linker between Fn8 and COL18NC1 contains six residues (GGGSGG; SEQ ID NO:89). To generate the flexible un-structured linkers with different lengths, we have synthesized the genes GLP-1(A8G/G22E/R36S)-Fn8-COL18NC1-20, GLP-1(A8G/G22E/R36S)-Fn8-COL18NC1-30, GLP-1(A8G/G22E/R36S)-Fn8-COL18NC1-54 and GLP-1(A8G/G22E/R36S)-Fn8-COL18NC1-60. In these genes, the length of the flexible unstructured polypeptide linker between Fn8 and COL18NC1 contained 20, 30, 54 and 60 residues, respectively. The protein sequences of GLP-1(A8G/G22E/R36S)-Fn8-COL18NC1-20, GLP-1(A8G/G22E/R36S)-Fn8-COL18NC1-30, GLP-1(A8G/G22E/R36S)-Fn8-COL18NC1-54 and GLP-1(A8G/G22E/R36S)-Fn8-COL18NC1-60 are listed as SEQ ID NO:8-11. The synthetic genes of GLP-1(A8G/G22E/R36S)-Fn8-COL18NC1-20, GLP-1(A8G/G22E/R36S)-Fn8-COL18NC1-30, GLP-1(A8G/G22E/R36S)-Fn8-COL18NC1-54 and GLP-1(A8G/G22E/R36S)-Fn8-COL18NC1-60 were grafted to the pET29b by NdeI and XhoI for protein expressions. The expression and purification of these fusion proteins were carried out using similar protocols described in example 3. To estimate the hydrodynamic radius and/or the Rg of the fusion proteins, the purified proteins were loaded on an analytical gel filtration column Superdex200 (GE Healthcare).
Moreover, the flexible unstructured linker between the therapeutic polypeptide and the scaffold protein may adjust the hydrodynamic radius and/or the Rg of the fusion molecule in a tunable manner.
The apparent molecular weights of the fusion proteins were estimated by use of an analytical gel filtration column Superdex-200 (GE Healthcare) mounted on the AKTA FPLC system (GE Healthcare). The purified fusion proteins GLP-1-Fn8, GLP-1-Fn8-COL18NC1, GLP-1(A8G/G22E/R36G)-Fn8-p246-COL18NC1 were loaded on the Superdex200 column. GLP-1-Fn8 is a fusion protein of GLP-1 and Fn8 and contains the first 144 amino acid residues of the fusion protein GLP-1-Fn8-COL18NC1 (SEQ ID NO:2). […] The genuine molecular weights for the fusion proteins GLP-1-Fn8 monomer, GLP-1-Fn8-COL18NC1 trimer, and GLP-1(A8G/G22E/R36G)-Fn8-p246-COL18NC1 trimer were ˜15 Kd, 65 Kd and 123Kd, respectively.

[2] = biological target: human GLP-1 receptor (GLP-1R) (human, UniProt P43220 24-463); assay: cell-based or functional assay
[3] = pharmacokinetics in Sprague-Dawley rats, sandwich ELISA (Example 6); assay type: in vivo; conditions: Sprague-Dawley rat, intraperitoneal, 0.66/0.72/0.75/0.78 mg/kg respectively
Experimental: To evaluate the pharmacokinetics profiles for the GLP-1 containing fusion proteins generated using the method of the invention, we purified GLP-1(A8G/G22E/R36S)-Fn8-COL18NC1, GLP-1(A8G/G22E/R36S)-Fn8-COL18NC1-20, GLP-1(A8G/G22E/R36S)-Fn8-COL18NC1-30, GLP-1(A8G/G22E/R36S)-Fn8-COL18NC1-54 in PBS buffer, pH 7.2. These fusion proteins were administered on Sprague-Dawley (SD) rats by intraperitoneal injections at the doses of 0.66 mg/kg, 0.72 mg/kg, 0.75 mg/kg, 0.78 mg/kg animal respectively. Blood samples were taken at various time points after injections such as 0-min, 30-min, 1-hour, 2-hour, 4-hour, 8-hour, 24-hour, 48-hour, 3-day, 4-day, 5-day. 7-day, 10-day. The serum samples were centrifuged and kept at −80° C. freezer.
(§1) The GLP-1 concentrations within the serum samples were examined by use of the sandwich ELISA method. The rabbit polyclonal antibody against human Fibronectin at the concentration of 3 ug/ml (Ab299, Abcam company) was coated on ELISA plate for 1 hour at room temperature. Then the plate was washed by PBST buffer three times and the wells were blocked by PBS with 10% FBS for 1 hour at room temperature. The plate was washed three times before the serum samples containing GLP-1 fusion proteins were added. The serum samples could be diluted to 20-10000 folds before use. The ELISA plate was incubated with the serum samples at room temperature for 1 hour and then washed by PBST buffer five times. Then mouse monoclonal against human GLP-1 peptide antibody (sc57510, Santa Cruz Biotechology) at the concentration of 1 ug/ml in PBST buffer was added to the wells. The plate was washed extensively after incubation of 1 hour at room temperature. The secondary antibody, […] HRP conjugated antibody (Beijing ZSGB-Bio company, ZB 5301), was added into the wells and the color was developed using TMB (3,3′,5,5′-tetramethylbenzidine, BD Biosciences, Cat 555214). The plate reader (Bio-Rad microplate reader Model 680) was utilized to obtain the OD450 readings. This method has been calibrated using purified proteins first.
The pharmacokinetics parameters were obtained by using the WinNonlin software (Table 3).

[4] = pharmacokinetics in SD rats, sandwich ELISA (Example 15); assay type: in vivo, SD (Sprague-Dawley) rats; conditions: intraperitoneal, 5 nmol/kg
Experimental: To evaluate the pharmacokinetics profiles for the GLP-1 containing fusion proteins generated using the method of the invention, we purified the recombinant fusion proteins of GLP-1-Fn8-COL18NC1, GLP1(A8G/G22E/R36G)-Fn8-p246-COL18NC1 and GLP1(A8G/G22E/R36G)-Fn8-p285-COL18NC1 in PBS buffer, pH 7.2. These fusion proteins were administered into SD (Sprague-Dawley) rats by intraperitoneal injections at the dose of 5 nmol/kg for animals, respectively. Blood samples were taken at various time points after injections such as 0-min, 30-min, 1-hour, 2-hour, 4-hour, 6-hour, 8-hour, 24-hour, 48-hour, 3-day, 4-day, 5-day, 6-day and 7-day. The serum samples were centrifuged and kept at −80° C. freezer.
as §1, with “within the samples were” for “within the serum samples were”, “Santa Cruz Biotechnology) at the” for “Santa Cruz Biotechology) at the”
The pharmacokinetics parameters were obtained by using the WinNonlin software (Table 5).

B1: GLP-1-Fn8: fusion protein of GLP-1 and Fn8, first 144 residues of SEQ ID NO:2; monomer in solution (protein)
chain: HAEGTFTSDVSSYLEGQAAKEFIAWLVKGRGGGGSGGGGSAVPPPTDLRFTNIGPDTMRVTWAPPPSIDLTNFLVRYSPVKNEEDVAELSISPSDNAVVLTNLLPGTEYVVSVSSVYEQHESTPLRGRQKTGGGGSGGGASSGV
apparent molecular weight [1]: ~20 Kd

B5: GLP-1(A8G/G22E/R36S)-Fn8-COL18NC1 (ligand)
chain: HGEGTFTSDVSSYLEEQAAKEFIAWLVKGSGGGGSGGGGSAVPPPTDLRFTNIGPDTMRVTWAPPPSIDLTNFLVRYSPVKNEEDVAELSISPSDNAVVLTNLLPGTEYVVSVSSVYEQHESTPLRGRQKTGGGGSGGGASSGVRLWATRQAMLGQVHEVPEGWLIFVAEQEELYVRVQNGFRKVQLEARTPLPRG
EC50 (nM) measured by cAMP assay [2]: 1.3 nM | apparent molecular weight [1]: ~100 Kd

B9: GLP-1(A8G/G22E/R36S)-Fn8-COL18NC1-60 (ligand)
chain: HGEGTFTSDVSSYLEEQAAKEFIAWLVKGSGGGGSGGAVPPPTDLRFTNIGPDTMRVTWAPPPSIDLTNFLVRYSPVKNEEDVAELSISPSDNAVVLTNLLPGTEYVVSVSSVYEQHESTPLRGRQKTGGGGSGGGSGGGSTASSASTKGPSGGGSGGGSGGGSAPSSKSTSGGTAAGGGSGGGSGGGSGASSGVRLWATRQAMLGQVHEVPEGWLIFVAEQEELYVRVQNGFRKVQLEARTPLPRG
EC50 (nM) measured by cAMP assay [2]: 0.5 nM | apparent molecular weight [1]: ~200 Kd

B10: GLP1(A8G/G22E/R36G)-Fn8-p285-COL18NC1: fusion with Fn8, pCloud p285 and COL18NC1; SEQ ID NO: 23 (protein)
chain: HGEGTFTSDVSSYLEEQAAKEFIAWLVKGGGSGGGSGGGSGGGSGGGSGSGGAVPPPTDLRFTNIGPDTMRVTWAPPPSIDLTNFLVRYSPVKNEEDVAELSISPSDNAVVLTNLLPGTEYVVSVSSVYEQHESTPLRGRQKTGGGGSGGGSGSGSESGSGGGSTSSGTGSETESPGSGSESGSGPSSAGSGSGSESGSGSGSSGPGSTGGSGSESGSGPGSSGTGGTATGSGSESGSGPGSSGPGSTGSGSGSESGSGSGSSGTGSTGGSGSESGSGPGSPRPGSTGTGSGSESGSGPGSSERGSAGGSGSESGSGTSESSASGSTGGSGSESGSGSESGSGSGSESGSGPESPGSGGSGSESGSGTSGSTGSGSESGSGPGSSGPGSTGSGSGSESGSGSGSSGTGSTGGSGSESGSGGGSGGGSGGGASSGVRLWATRQAMLGQVHEVPEGWLIFVAEQEELYVRVQNGFRKVQLEARTPLPRG
AUCall ([4]; Rats): 475300 ng·h/mL | CL/F ([4]; Rats): 0.0228 mL/min/kg | Cmax ([4]; Rats): 7980 ng/mL | T½ ([4]; Rats): 31.2 h | Vss ([4]; Rats): 0.062 L/kg | half life ([4]; SD rats): 31.2 h

More lines, main results first:

EC50 (nM) measured by cAMP assay [2]: 1.3 nM
B2: GLP-1(A8G/G22E/R36S)-Fn8-COL18NC1-30 (ligand)
chain: HGEGTFTSDVSSYLEEQAAKEFIAWLVKGSGGGGSGGAVPPPTDLRFTNIGPDTMRVTWAPPPSIDLTNFLVRYSPVKNEEDVAELSISPSDNAVVLTNLLPGTEYVVSVSSVYEQHESTPLRGRQKTGGGGGSGGGGSASSASTGGPSGGGGSGGGGSGASSGVRLWATRQAMLGQVHEVPEGWLIFVAEQEELYVRVQNGFRKVQLEARTPLPRG
AUC(0-t) [3]: 47580 ng·h/mL | AUCinf [3]: 47600 ng·h/mL | CL [3]: 0.7673 mL/min/kg | Cmax [3]: 2150 ng/mL | T½ [3]: 7.22 h | V [3]: 0.47981 L/kg | apparent molecular weight [1]: larger apparent molecular weight than their genuine molecular weight

EC50 (nM) measured by cAMP assay [2]: 2.1 nM
B3: GLP-1-Fn8-COL18NC1 (ligand)
chain: B5 chain with G2A, E16G, S30R

EC50 (nM) measured by cAMP assay [2]: 1.3 nM
B4: GLP-1(A8V/G22E)-Fn8-COL18NC1 (ligand)
chain: B5 chain with G2V, S30R

EC50 (nM) measured by cAMP assay [2]: 1.3 nM
B6: GLP-1(A8G/G22E)-Fn8-COL18NC1 (ligand)
chain: B5 chain with S30R

EC50 (nM) measured by cAMP assay [2]: 1.2 nM
B7: GLP-1(A8G/G22E/R36G)-Fn8-COL18NC1 (ligand)
chain: B5 chain with S30G

EC50 (nM) measured by cAMP assay [2]: 1.3 nM
B8: GLP-1(A8S/G22E)-Fn8-COL18NC1 (ligand)
chain: B5 chain with G2S, S30R
